Results published in paper PMC12084609, “Structural insights into small-molecule agonist recognition and activation of complement receptor C3aR” (The EMBO Journal, 2025).
Numbering of substitutions follows the chain as printed. Where “and” joins values, the source holds several entries; their conditions need not be identical. Equal entries are not always repeated.

Tests used:
[1] = molecular target: T1, C3aR I98^3.28A (Homo sapiens, UniProt Q16581, I98A); experiment: GloSensor-based cAMP assay, C3aR mutant I98A; format: cell-based; details: for cAMP response (% Forskolin): I983.28A, single replicates
T1 construct: expressed in transfected cells; host or cells: HEK293T
T1 sequence (Q16581 1-482 I98A): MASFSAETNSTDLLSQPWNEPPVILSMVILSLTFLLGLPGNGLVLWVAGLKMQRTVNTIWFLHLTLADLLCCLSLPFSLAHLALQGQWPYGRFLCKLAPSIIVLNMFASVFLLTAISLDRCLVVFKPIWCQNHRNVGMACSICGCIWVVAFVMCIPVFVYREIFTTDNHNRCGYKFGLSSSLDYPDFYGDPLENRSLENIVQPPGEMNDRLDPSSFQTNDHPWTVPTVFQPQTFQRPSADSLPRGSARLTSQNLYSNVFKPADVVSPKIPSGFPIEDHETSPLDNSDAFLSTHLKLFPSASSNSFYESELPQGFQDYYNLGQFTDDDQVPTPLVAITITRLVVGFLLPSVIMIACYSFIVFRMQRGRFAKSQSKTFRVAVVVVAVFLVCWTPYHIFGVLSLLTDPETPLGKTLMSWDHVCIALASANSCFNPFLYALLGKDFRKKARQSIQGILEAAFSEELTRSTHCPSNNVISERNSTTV
Protocol: (§1) HEK293T cells were seeded on 6-well plates (NEST) and transfected with pGlosensor™-22F plasmids (Promega) and pcDNA3.1 plasmids encoding C3aR or its mutants an with N-terminal FLAG tag. After 48 h, cells were detached with Accutase solution (Sigma-Aldrich) and washed with PBS, and resuspended in assay buffer (CO2-independent medium with 0.5 mg mL^−1D-luciferin). 100,000–200,000 cells were seeded on 96-well white bottom plates (SPL) and incubated at 37 °C for 45 min followed by 45 min incubation at room temperature. After 90 min of incubation, basal luminescence signals were recorded. In total, 25 μl of test ligand with various concentrations and 1 μM Forskolin (Sigma-Aldrich) were treated to the cells and luminescence signals were measured by Tristar 2 LB 942 multimode reader (Berthold). […] Relative luminescence unit (%) was calculated with the signal of wells treated with vehicle as 0% and the signal of wells treated with 1 μM Forskolin as 100% (DiRaddo et al, [2014]). Nonlinear regression was performed using a three-parameter logistic equation.

[2] = molecular target: T2, C3aR V103^3.33A (Homo sapiens, UniProt Q16581, V103A); experiment: GloSensor-based cAMP assay, C3aR mutant V103A; format: cell-based; details: for cAMP response (% Forskolin): V103A, single replicates
T2 construct: expressed in transfected cells; host or cells: HEK293T
T2 sequence (Q16581 1-482 V103A): T1 sequence (Q16581 1-482 I98A) with A98I, V103A
Protocol: as §1

[3] = Dunnett's multiple comparisons test, WT minus mutant

C3a: anaphylatoxin C3a, natural peptide ligand of C3aR (a 77-amino acid peptide), Sigma-Aldrich
Mean Diff. of pIC50, WT vs. I98A [1, 3]: 0.113
ΔpIC50 ± SE of Diff. ([1]; I98^3.28A relative to WT C3aR): -0.11 ± 0.02
IC50 ([1]; I98^3.28A, dose-response plot, read-out: IC50): 4.07 nM
pIC50 (Replicate) ([1]; I98^3.28A, individual replicates): 8.38 (2×) and 8.42 and 8.40 and 8.08 and 8.54 and 8.47
pIC50 ± SEM (Mean) ([1]; I98^3.28A, mean of independent experiments): 8.38 ± 0.05 and 8.38
cAMP response (% Forskolin) ([1]; Log[C3a (M)] -7): 12.31 % Forskolin and 10.90 % Forskolin and 9.84 % Forskolin and 8.89 % Forskolin and 11.38 % Forskolin and 5.37 % Forskolin and 7.43 % Forskolin
cAMP response (% Forskolin) ([1]; Log[C3a (M)] -8): 27.29 % Forskolin and 21.82 % Forskolin and 20.14 % Forskolin and 14.26 % Forskolin and 42.67 % Forskolin and 12.53 % Forskolin and 15.24 % Forskolin
cAMP response (% Forskolin) ([1]; Log[C3a (M)] -9): 88.79 % Forskolin and 95.53 % Forskolin and 90.20 % Forskolin and 95.03 % Forskolin and 96.77 % Forskolin and 78.73 % Forskolin and 85.71 % Forskolin
cAMP response (% Forskolin) ([1]; Log[C3a (M)] -10): 99.83 % Forskolin and 101.03 % Forskolin and 99.65 % Forskolin and 94.56 % Forskolin and 95.76 % Forskolin and 97.03 % Forskolin and 93.13 % Forskolin
cAMP response (% Forskolin) ([1]; Log[C3a (M)] -11): 97.32 % Forskolin and 101.48 % Forskolin and 99.97 % Forskolin and 96.12 % Forskolin and 97.86 % Forskolin and 93.68 % Forskolin and 92.51 % Forskolin
cAMP response (% Forskolin) ([1]; Log[C3a (M)] -12): 95.26 % Forskolin and 98.35 % Forskolin and 96.71 % Forskolin and 98.06 % Forskolin and 93.96 % Forskolin and 97.55 % Forskolin and 101.79 % Forskolin
Mean Diff. of pIC50, WT vs. V103A [2, 3]: 0.086
cAMP response (% Forskolin) ([2]; Log[C3a (M)] -7): 16.81 % Forskolin and 17.64 % Forskolin and 16.37 % Forskolin
cAMP response (% Forskolin) ([2]; Log[C3a (M)] -8): 18.63 % Forskolin and 17.74 % Forskolin and 17.49 % Forskolin
cAMP response (% Forskolin) ([2]; Log[C3a (M)] -9): 66.34 % Forskolin and 67.98 % Forskolin and 37.55 % Forskolin
cAMP response (% Forskolin) ([2]; Log[C3a (M)] -10): 87.50 % Forskolin and 90.87 % Forskolin and 75.99 % Forskolin
cAMP response (% Forskolin) ([2]; Log[C3a (M)] -11): 101.77 % Forskolin and 100.57 % Forskolin and 97.94 % Forskolin
cAMP response (% Forskolin) ([2]; Log[C3a (M)] -12): 105.75 % Forskolin and 100.95 % Forskolin and 97.98 % Forskolin
ΔpIC50 ± SE of Diff. ([2]; V103^3.33A relative to WT C3aR): -0.09 ± 0.05
IC50 ([2]; V103^3.33A, dose-response plot, read-out: IC50): 3.53 nM
pIC50 (Replicate) ([2]; V103^3.33A, individual replicates): 8.49 and 8.72 and 8.44 and 8.20
pIC50 ± SEM (Mean) ([2]; V103^3.33A, mean of independent experiments): 8.46
